The target in assay [1] is T1, full length pepsinized type I collagen from mouse tail tendon (mouse, UniProt P11087 152-1207; Q01149 86-1125).
T1 construct: collagen alpha-1(I) chain, mouse; collagen alpha-2(I) chain, mouse; Chain composition (two alpha1(I), one alpha2(I)) as the introduction tells of type I collagen in general; source: purified from mouse tail tendon (pepsinized); copies: 2 + 1
Put plainly: SPR; BIAcore X; type I collagen from mouse tail tendon immobilised on a CM5 chip by amide coupling (about 6,000 RU); HSP47 flowed over; 20°C; HBS-P (10 mM Hepes pH 7.4, 150 mM NaCl, 0.005% Surfactant P20); 10 ul/min; Langmuir binding model. The note with it: both partners purified. Background: In SPR one partner is held on a chip, and binding of the other changes the refractive index at the surface.

Assay [2] concerns the target T2, type I collagen from rat tail (rat, UniProt P02454 152-1207; P02466 86-1125).
T2 construct: collagen alpha-1(I) chain, rat; collagen alpha-2(I) chain, rat; Chain composition as the introduction tells of type I collagen in general; also called full length type I collagen; source: bought: BD Bioscience; copies: 2 + 1
Briefly: ELISA; ELISA-like binding assay; type I collagen from rat tail coated at 10 ug/mL on MaxiSorp plates (coating of GPR-foldon not described); His-tagged HSP47 at 1.2 to 5,000 nM in solution; detected with HRP-coupled anti-His antibody; four-parameter logistic fit. The note with it: both partners purified. In general terms: An ELISA detects its analyte on a solid surface through an enzyme-linked reagent.

These results are taken from PMC7877763, “Aberrant binding of mutant HSP47 affects posttranslational modification of type I collagen and leads to osteogenesis imperfecta” (PLoS Genetics, 2021).

T2 sequence (P02454 152-1207, chain 1 of 2): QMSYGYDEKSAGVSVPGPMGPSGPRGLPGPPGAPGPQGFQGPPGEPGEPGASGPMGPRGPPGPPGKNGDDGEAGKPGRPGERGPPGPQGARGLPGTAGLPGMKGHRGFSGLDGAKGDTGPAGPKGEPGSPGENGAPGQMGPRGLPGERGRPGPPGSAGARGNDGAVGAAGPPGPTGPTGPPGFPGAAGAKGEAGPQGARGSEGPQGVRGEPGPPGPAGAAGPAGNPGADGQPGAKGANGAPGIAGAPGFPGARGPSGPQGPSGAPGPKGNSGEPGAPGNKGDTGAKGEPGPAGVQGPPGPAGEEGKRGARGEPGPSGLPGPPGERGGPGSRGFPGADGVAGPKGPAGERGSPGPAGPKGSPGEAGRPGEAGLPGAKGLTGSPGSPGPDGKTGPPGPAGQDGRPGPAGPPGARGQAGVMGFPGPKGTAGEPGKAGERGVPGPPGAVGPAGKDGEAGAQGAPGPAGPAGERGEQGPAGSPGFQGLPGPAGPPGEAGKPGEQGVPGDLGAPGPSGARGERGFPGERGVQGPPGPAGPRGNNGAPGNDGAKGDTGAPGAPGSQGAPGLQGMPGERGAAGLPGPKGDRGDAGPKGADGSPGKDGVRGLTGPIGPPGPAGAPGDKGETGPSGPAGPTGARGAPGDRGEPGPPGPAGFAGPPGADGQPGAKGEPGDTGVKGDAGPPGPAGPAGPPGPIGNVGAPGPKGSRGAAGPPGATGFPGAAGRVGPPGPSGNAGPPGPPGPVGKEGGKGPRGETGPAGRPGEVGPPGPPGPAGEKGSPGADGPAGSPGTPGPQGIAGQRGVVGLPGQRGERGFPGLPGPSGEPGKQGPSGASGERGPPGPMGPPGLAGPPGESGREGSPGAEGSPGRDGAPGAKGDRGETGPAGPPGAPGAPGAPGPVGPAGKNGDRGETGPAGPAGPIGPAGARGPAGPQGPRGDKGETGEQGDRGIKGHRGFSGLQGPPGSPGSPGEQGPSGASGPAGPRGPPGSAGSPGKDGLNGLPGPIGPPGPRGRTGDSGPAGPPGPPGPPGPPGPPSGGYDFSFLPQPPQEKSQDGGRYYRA
T2 sequence (P02466 86-1125, chain 2 of 2): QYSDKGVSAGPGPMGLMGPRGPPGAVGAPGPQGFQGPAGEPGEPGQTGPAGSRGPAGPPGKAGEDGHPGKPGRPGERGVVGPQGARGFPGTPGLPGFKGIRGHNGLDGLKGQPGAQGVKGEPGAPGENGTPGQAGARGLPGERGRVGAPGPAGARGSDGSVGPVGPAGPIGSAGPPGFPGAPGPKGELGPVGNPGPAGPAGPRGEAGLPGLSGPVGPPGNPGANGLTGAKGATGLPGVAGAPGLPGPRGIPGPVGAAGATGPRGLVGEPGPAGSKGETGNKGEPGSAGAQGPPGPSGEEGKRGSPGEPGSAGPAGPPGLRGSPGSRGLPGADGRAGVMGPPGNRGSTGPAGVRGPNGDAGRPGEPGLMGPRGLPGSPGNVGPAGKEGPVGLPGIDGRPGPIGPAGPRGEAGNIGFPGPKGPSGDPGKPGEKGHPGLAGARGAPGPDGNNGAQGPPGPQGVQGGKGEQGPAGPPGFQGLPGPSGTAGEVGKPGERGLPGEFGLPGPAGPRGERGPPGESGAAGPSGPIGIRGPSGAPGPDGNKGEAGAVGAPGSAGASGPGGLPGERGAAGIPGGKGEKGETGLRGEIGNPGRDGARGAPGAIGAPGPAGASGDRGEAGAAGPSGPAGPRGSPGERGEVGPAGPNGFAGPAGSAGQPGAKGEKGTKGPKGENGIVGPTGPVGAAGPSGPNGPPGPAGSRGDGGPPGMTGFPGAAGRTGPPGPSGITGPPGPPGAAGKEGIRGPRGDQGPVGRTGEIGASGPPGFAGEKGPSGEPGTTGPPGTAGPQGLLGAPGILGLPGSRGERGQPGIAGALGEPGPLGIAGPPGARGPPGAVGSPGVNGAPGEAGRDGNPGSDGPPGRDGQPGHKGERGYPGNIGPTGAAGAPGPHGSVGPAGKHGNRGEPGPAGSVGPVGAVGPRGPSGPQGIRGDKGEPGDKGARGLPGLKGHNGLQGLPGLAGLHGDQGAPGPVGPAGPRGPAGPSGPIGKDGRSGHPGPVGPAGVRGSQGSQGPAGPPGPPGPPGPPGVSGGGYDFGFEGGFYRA
T1 sequence (P11087 152-1207, chain 1 of 2): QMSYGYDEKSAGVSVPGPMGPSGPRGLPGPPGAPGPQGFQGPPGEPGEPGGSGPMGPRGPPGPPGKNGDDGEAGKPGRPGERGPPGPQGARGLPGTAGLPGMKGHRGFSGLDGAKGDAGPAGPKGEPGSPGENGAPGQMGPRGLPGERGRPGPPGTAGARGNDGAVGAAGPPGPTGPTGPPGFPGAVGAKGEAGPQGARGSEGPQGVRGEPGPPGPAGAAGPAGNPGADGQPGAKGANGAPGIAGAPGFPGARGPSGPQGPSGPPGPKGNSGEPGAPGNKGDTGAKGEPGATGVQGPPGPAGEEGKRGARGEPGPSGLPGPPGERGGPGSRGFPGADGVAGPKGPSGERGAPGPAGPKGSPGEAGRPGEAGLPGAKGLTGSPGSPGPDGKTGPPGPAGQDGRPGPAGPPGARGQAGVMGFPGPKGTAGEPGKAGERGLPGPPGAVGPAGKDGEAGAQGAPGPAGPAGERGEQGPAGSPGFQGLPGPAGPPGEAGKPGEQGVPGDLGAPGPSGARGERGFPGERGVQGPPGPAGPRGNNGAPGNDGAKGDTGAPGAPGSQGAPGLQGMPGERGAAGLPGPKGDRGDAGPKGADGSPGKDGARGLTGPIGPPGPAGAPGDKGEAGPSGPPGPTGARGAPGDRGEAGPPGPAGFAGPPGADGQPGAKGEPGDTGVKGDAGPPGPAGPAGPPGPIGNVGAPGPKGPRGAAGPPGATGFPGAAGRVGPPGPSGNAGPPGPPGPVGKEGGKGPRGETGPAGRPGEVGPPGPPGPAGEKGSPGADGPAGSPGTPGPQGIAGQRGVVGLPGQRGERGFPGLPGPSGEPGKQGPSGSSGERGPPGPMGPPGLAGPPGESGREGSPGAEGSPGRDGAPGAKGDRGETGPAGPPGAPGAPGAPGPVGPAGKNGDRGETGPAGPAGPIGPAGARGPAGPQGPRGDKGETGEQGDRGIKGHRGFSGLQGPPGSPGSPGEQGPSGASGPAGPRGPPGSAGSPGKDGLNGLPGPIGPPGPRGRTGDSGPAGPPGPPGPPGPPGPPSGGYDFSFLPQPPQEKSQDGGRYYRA
T1 sequence (Q01149 86-1125, chain 2 of 2): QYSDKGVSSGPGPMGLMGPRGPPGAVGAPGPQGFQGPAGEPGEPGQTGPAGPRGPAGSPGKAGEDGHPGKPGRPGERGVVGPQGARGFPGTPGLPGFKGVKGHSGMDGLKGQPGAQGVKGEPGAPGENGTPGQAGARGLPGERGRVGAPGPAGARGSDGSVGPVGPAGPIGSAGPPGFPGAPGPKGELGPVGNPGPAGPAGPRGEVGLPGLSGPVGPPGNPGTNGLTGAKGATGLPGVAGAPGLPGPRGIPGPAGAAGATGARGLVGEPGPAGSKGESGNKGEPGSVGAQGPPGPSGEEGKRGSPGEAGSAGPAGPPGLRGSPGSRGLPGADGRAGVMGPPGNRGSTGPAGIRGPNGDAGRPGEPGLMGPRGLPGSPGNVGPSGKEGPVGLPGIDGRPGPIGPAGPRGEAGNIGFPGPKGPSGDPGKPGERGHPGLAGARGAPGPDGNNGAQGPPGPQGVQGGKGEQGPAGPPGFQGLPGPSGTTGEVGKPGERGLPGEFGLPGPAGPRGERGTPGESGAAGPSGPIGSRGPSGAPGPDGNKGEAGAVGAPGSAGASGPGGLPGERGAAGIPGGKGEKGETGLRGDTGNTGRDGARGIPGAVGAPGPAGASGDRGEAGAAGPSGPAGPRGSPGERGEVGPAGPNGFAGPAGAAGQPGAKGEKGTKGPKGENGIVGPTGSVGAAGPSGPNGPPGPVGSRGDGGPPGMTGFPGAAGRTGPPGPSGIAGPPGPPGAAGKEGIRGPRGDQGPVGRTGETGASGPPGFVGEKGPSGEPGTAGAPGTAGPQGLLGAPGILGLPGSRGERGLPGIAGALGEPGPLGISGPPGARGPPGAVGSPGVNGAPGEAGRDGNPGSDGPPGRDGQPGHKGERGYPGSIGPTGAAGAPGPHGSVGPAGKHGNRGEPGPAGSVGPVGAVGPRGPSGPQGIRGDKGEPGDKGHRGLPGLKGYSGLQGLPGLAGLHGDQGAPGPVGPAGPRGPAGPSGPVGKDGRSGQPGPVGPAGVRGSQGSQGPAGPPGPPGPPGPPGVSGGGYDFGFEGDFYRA

B1: recombinant wild-type canine HSP47 (natural protein, UniProt C7C419 36-418, looked up)
chain: LSPKAATLAERSAGLAFSLYQAMAKDQAVENILLSPVVVASSLGLVSLGGKATTASQAKAVLSAEQLRDEEVHAGLGELLRSLSNSTARNVTWKLGSRLYGPSSVSFAEDFVRSSKQHYNCEHSKINFRDKRSALQSINEWAAQTTDGKLPEVTKDVERTDGALLVNAMFFKPHWDEKFHHKMVDNRGFMVTRSYTVGVTMMHRTGLYNYYDDEKEKLQIVEMPLAHKLSSLIILMPHHVEPLERLEKLLTKEQLKIWMGKMQKKAVAISLPKGVVEVTHDLQKHLAGLGLTEAIDKNKADLSRMSGKKDLYLASVFHATAFEWDTEGNPFDQDIYGREELRSPKLFYADHPFIFLVRDTQSGSLLFIGRLVRPKGDKMRDEL
notes: HSP47 (serpin H1), canine, residues 36-418 printed as 36LSP; RDEL418, in a pJExpress411 vector; The methods describe a strep-tagged construct; the ELISA methods speak of His-tagged HSP47 proteins detected by an anti-His antibody; also called wild-type HSP47; WT HSP47; source: E. coli BL21 (DE3), purified (Streptactin column, Superdex 200 SEC)
Turning to B1, the figures for the Kd in assay [1] and in assay [2] were 60 nM and 139 nM, respectively.

B2: recombinant canine HSP47-R222S (natural protein, UniProt C7C419 36-418, looked up)
chain: LSPKAATLAERSAGLAFSLYQAMAKDQAVENILLSPVVVASSLGLVSLGGKATTASQAKAVLSAEQLRDEEVHAGLGELLRSLSNSTARNVTWKLGSRLYGPSSVSFAEDFVRSSKQHYNCEHSKINFRDKRSALQSINEWAAQTTDGKLPEVTKDVERTDGALLVNAMFFKPHWDEKFHHKMVDNSGFMVTRSYTVGVTMMHRTGLYNYYDDEKEKLQIVEMPLAHKLSSLIILMPHHVEPLERLEKLLTKEQLKIWMGKMQKKAVAISLPKGVVEVTHDLQKHLAGLGLTEAIDKNKADLSRMSGKKDLYLASVFHATAFEWDTEGNPFDQDIYGREELRSPKLFYADHPFIFLVRDTQSGSLLFIGRLVRPKGDKMRDEL
notes: HSP47 (serpin H1), canine, residues 36-418 (36LSP... RDEL418) with R222S introduced by Quikchange mutagenesis; The substitution is the one found in the human patient, placed in the canine protein; Strep tag by the purification methods, His tag by the ELISA methods; also called R222S HSP47; source: E. coli BL21 (DE3), purified as wild-type HSP47 (Streptactin column, Superdex 200 SEC)
For B2, the figures for the dissociation constant Kd in assay [1] and in assay [2] were 640 nM and approximately 3600 nM, respectively.

As a reminder, the Kd is the free concentration of one partner at which half of the binding sites on the other are occupied at equilibrium, for simple one-to-one binding. High values mean weaker binding, low ones tighter binding.
